Experimental data as given in article PMC8769072, “Proteome‐scale mapping of binding sites in the unstructured regions of the human proteome” (Molecular Systems Biology, 2022).
Where no end group is shown, it is not given here. [ ]: non-standard residue; d: D form. The star is where a group is joined. FITC = O=C1OC2(c3ccc(O)cc3Oc3cc(O)ccc32)c2ccc(NC(=S)*)cc21; pS = N[C@@H](COP(=O)(O)O)C(=O)O

Key:
[1] = target: TLN1 PTB (talin-1, phosphotyrosine binding-like domain) (human) (UniProt Q9Y490); assay: fluorescence polarisation; direct saturation binding: protein in serial dilution, FITC-labelled probe peptide fixed (master mix 10 nM probe, 2 mM DTT); 50 mM KPO4 or NaPO4 pH 7.5; quadratic fit
[2] = target: KPNA4 ARM, MBP‐tagged domain, for affinity measurements (human); assay: fluorescence polarisation; competition on MBP-tagged KPNA4 ARM: unlabelled peptide in serial dilution displaces FITC-Myc 320-328 (probe for the major pocket) or FITC-NCOR2 1307-1322 (probe for the minor pocket); 50 mM KPO4 pH 7.5; triplicates
[3] = target: SFN 14-3-3 (14-3-3 protein sigma) (human) (UniProt P31947); assay: fluorescence polarisation; competition: unlabelled peptide in serial dilution against the protein domain (master mix at four times the KD) with its FITC-labelled probe peptide; 50 mM KPO4 or NaPO4 pH 7.5; Ki calculated from IC50
[4] = target: SFN 14-3-3 (14-3-3 protein sigma) (human) (UniProt P31947); assay: fluorescence polarisation; direct saturation binding: protein in serial dilution, FITC-labelled probe peptide fixed (master mix 10 nM probe, 2 mM DTT); 50 mM KPO4 or NaPO4 pH 7.5; quadratic fit
[5] = target: KPNA4 ARM (importin subunit alpha-3, armadillo repeat domain) (human) (UniProt O00629); assay: as above
[6] = target: KPNB1 HEAT (importin subunit beta-1, HEAT repeat) (human) (UniProt Q14974); assay: as above
[7] = target: KEAP1 Kelch domain, MBP-tagged (human) (UniProt Q14145); assay: fluorescence polarisation; competition: unlabelled peptide in serial dilution against FITC-labelled probe peptide and protein (master mix with protein at four times the KD), 50 mM KPO4 pH 7.5; sigmoidal dose-response fit, KI
[8] = target: KEAP1 Kelch (kelch-like ECH-associated protein 1, Kelch domain) (human) (UniProt Q14145); assay: fluorescence polarisation; competition: unlabelled peptide in serial dilution against the protein domain (master mix at four times the KD) with its FITC-labelled probe peptide; 50 mM KPO4 or NaPO4 pH 7.5; Ki calculated from IC50
[9] = target: MDM2 SWIB, cleaved from the His‐GST tag, for affinity measurements (human); assay: fluorescence polarisation; competition: unlabelled peptide in serial dilution displaces a FITC-labelled probe peptide from the bait domain (master mix with protein at four times the KD of the probe, 10 nM probe, 2 mM DTT); 50 mM KPO4 or NaPO4 pH 7.5; triplicates; probe for KEAP1 Kelch: FITC-NFE2L1 228-243, other probes in Dataset EV6

Work on {FITC}-FPTDERSWVYSPLHYS-NH2 [FITC-PIP5K1C 640-655 probe peptide] yielded a Kd [1] of 0.15 µM.

For KCRRQRQDQTLELVGL [NKX2‐5_(192–207) K194R mutant peptide, synthetic, P52952 192-207], the fold loss of affinity against the wild-type peptide [2] was 10 fold.

Ac-NEPTTPSWLADIPPWVP-NH2 [MAP1A 1831-1847 peptide] showed an IC50 [3] of 1970 µM.

In the case of {FITC}-QRST[pS]TPNVH-NH2 [FITC-RAF phosphopeptide probe], the Kd [4] is reported as 524 µM.

With {FITC}-PAAKRVKLD [FITC-Myc 320-328 probe peptide] the Kd [5] was 0.03 µM.

With {FITC}-VATFVFGQSS-NH2 [FITC-NUP153 1223-1232 probe peptide] the Kd [6] was 106 µM.

Ac-YMQHLQEQQQQQMHLQ-NH2 [TREF1 332-347 peptide] was tested, and the Ki [7] was 162 µM, the IC50 [8] was 490 µM and the Ki [8] was 162 µM.

For Ac-PPLPPPPLPPAPSLPY-NH2 [ATF5 128-143 peptide], the Ki [7] was 1470 µM, the IC50 [8] was 4430 µM and the Ki [8] was 1470 µM.

In the case of {FITC}-PKRTYDMMEGRVGRAI [FITC-NCOR2 1307-1322 probe peptide], the Kd [5] is reported as 0.23 µM.

THFAELWGHLDHTMFF [RNF115_(69–84) peptide, synthetic] gave a Ki [9] of 0.17 µM.
